In the supplement of paper PMC10567573 one finds protein stability index data, which are given here for 72 sequences.

This series in a line: protein stability index of a GFP-peptide fusion (GPS, HEK-293T) (PSI 1-6); higher = more stable.
Where [1] appears, read: treatment: DMSO, c terminus: a fixed tail appended.
Where [2] appears, read: treatment: MLN4924 1 uM, 8 h, c terminus: a fixed tail appended.

± gives the standard deviation.
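Also: 24-mer peptide tiles fused after GFP, lentivirally expressed, FACS-sorted into six equal bins by GFP/DsRed ratio, decoded by Illumina sequencing, PSI is the read-weighted mean bin number.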

With AAEGEGSPPAVAAVAGPPAAAEVG [ANKRD17], the protein stability index under setting [1] worked out at 5.63 ± 0.23 and the protein stability index under setting [2] is 5.21 ± 0.43.
The like results for AAKFPSGSQRARVVNTDHGSPEQL [SDE2] were, in that order, 4.56 ± 0.44 and 4.81 ± 0.17.
As to AALNNHPDIMNLLIKSGAHFDATN [FEM1C], the protein stability index is, setting by setting: under setting [1], 2.41 ± 0.24; under setting [2], 2.54 ± 0.3.
For AAPAAGLCGAGSEPSIAPTSCAGN [RSPH3], in that order: 4.55 ± 0.25 and 4.68 ± 0.26.
For AARLLFNMAGVTFRKFIPKCSKIV [DCTD], the protein stability index runs as follows: under setting [1], 1.97 ± 0.15; under setting [2], 2 ± 0.18.
AAVEGSGGSGGGSHHHHQSRGACT [KCNA4] had a protein stability index under setting [1] of 4.97 ± 0.16 and a protein stability index under setting [2] of 4.7 ± 0.71.
As for AAWCLHHICTNYNSVCSKFRKEIK [RHOBTB1], the protein stability index worked out at 2.23 ± 0.037 under setting [1] and 2.19 ± 0.28 under setting [2].
In the case of ADGSPPLLPPGEPPLLGTFPRDHT [ANKRD40], the protein stability index is, setting by setting: under setting [1], 4.8 ± 0.28; under setting [2], 4.49 ± 0.21.
Consider ADIDHDQALAQAIKEAKEQHPDMS [EPB41L3], for which the protein stability index runs as follows: under setting [1], 5.56 ± 0.17; under setting [2], 5.51 ± 0.31.
In the case of ADIPSVAFSSRLGGSRGAPGLLMA [DCAF4], the protein stability index under setting [1] was 2.83 ± 0.2 and the protein stability index under setting [2] came out at 2.78 ± 0.51.
AEAQKNMYFKTRLKCPRSLSGGR [ZNF396] returned a protein stability index (treatment: DMSO, c terminus: native) of 2.72 ± 0.45 and a protein stability index (treatment: MLN4924 1 uM, 8 h, c terminus: native) of 2.99 ± 0.44.
Regarding AEDLGNLWENTRFTDCSFFVRGQE [SPOPL], the protein stability index reads like this: under setting [1], 3.69 ± 0.32; under setting [2], 3.74 ± 0.24.
Take AERLGVTFFEVSPLCNFNITESFT [RAB40B]: the protein stability index reads like this: under setting [1], 2.13 ± 0.15; under setting [2], 2.22 ± 0.16.
Regarding AFAFQNTFPHSISAKNTSHPGSGT [SASS6], the protein stability index by setting is: under setting [1], 3.36 ± 0.39; under setting [2], 3.45 ± 0.45.
The like results for AFNQNSSLGRHKRTHTGEKPYTCS [ZNF8] were, in that order, 3.42 ± 0.33 and 3.79 ± 0.49.
Consider AFPKMALQAKQDGKKDVSHSSPVD [LCOR], for which the protein stability index under setting [1] turned out to be 5.26 ± 0.14 and the protein stability index under setting [2] was 5.16 ± 0.16.
Take AFPYQYPPPPHPYNPHPGFPELGY [DVL3]: the protein stability index is, setting by setting: under setting [1], 2.35 ± 0.31; under setting [2], 2.5 ± 0.35.
Take AFTMAENLANCERLIEVEDMMVMG [SMTNL2]: the protein stability index is, setting by setting: under setting [1], 2.58 ± 0.35; under setting [2], 3.24 ± 0.34.
For AGVGLSGGAAGAGWCIFVYNLSPE [ELAVL3], the protein stability index is, setting by setting: under setting [1], 3.13 ± 0.71; under setting [2], 2.71 ± 0.26.
As for AHRTEFYRNLTHNPPSDFSFQNMN [STK38L], the protein stability index is, setting by setting: under setting [1], 2.84 ± 0.34; under setting [2], 2.88 ± 0.24.
For the sequence AIAPFQSAGSPPELQGLPELHEEC [NET1], the protein stability index reads like this: under setting [1], 4.99 ± 0.33; under setting [2], 4.85 ± 0.14.
As to AKDLPCDSKPESALGAPSKSPSSP [TBX5], the protein stability index reads like this: under setting [1], 5.49 ± 0.26; under setting [2], 5.54 ± 0.2.
In the case of AKPEVLSIQWPGKRSSRRVQRHNS [NECAB1], the protein stability index amounted to 4.23 ± 0.2 under setting [1] and 4.37 ± 0.21 under setting [2].
The like results for AKPRLAERMTTREKKVLEAGMGKV [HDAC6] were, in that order, 4.38 ± 0.17 and 3.98 ± 0.2.
The like results for ALAVCLSFFYPVLFVLFMFFGMAF [SOAT1] were, in that order, 2.84 ± 0.46 and 2.94 ± 0.75.
Regarding ALDEAAAALTRMRAESTANAGQSD [ANKRD17], the protein stability index by setting is: under setting [1], 5.49 ± 0.17; under setting [2], 5.36 ± 0.25.
On to ALNEQACRNGSSIQIAFEEVPQLP [C2CD2L], for which the protein stability index was 3.83 ± 0.38 under setting [1] and 4.02 ± 0.12 under setting [2].
For ALRKIIKTLAVKNEEIQSFIYSLK [FSD1], the protein stability index turned out to be 2.87 ± 0.45 under setting [1] and 2.89 ± 0.42 under setting [2].
Regarding AMAYHHDSRRIFVGQDNGAVMEFH [WDFY1], the protein stability index by setting is: under setting [1], 3.08 ± 0.15; under setting [2], 2.96 ± 0.32.
For ANCIVHRDLKPENILVTSGGTVKL [CDK4], in that order: 3.23 ± 0.15 and 3.5 ± 0.32.
With APDSGRSAPYSAAFLELPHGSGGS [TBX6], the protein stability index was 4.3 ± 0.17 under setting [1] and 4.46 ± 0.066 under setting [2].
The like results for APLSGPQALMLPPGSFWGLCQVAQ [VENTX] were, in that order, 2.06 ± 0.28 and 2.27 ± 0.14.
The like results for APPGSLVTKVTAVDADAGHNAWLS [PCDHGC5] were, in that order, 3.848 ± 0.025 and 4 ± 0.19.
As for AQLFMDHLFAGAEVILLVVMAYDR [OR4A15], the protein stability index stood at 2.2 ± 0.74 under setting [1] and 2.75 ± 1 under setting [2].
With AQQLLCDEQAPQRQRLLADLLHNV [DFFB], the protein stability index was 3.98 ± 0.16 under setting [1] and 3.92 ± 0.24 under setting [2].
AREGGGCGRSEVRPVAPRRPRDAV [SMAD6] displayed a protein stability index under setting [1] of 4.43 ± 0.26 and a protein stability index under setting [2] of 4.36 ± 0.21.
The like results for ARHNYNDLCPPIGRRAATALLWLS [GNAS] were, in that order, 2.15 ± 0.43 and 2.27 ± 0.35.
For ARLLCRLQAFGETLLLELEQDSGV [ADAMTS4], in that order: 2.66 ± 1.3 and 2.73 ± 0.29.
The like results for ARLRPGLAVLGADERIFSLTRRLA [HAGHL] were, in that order, 2.47 ± 0.14 and 2.78 ± 0.27.
For the sequence ARRLTRFTGVITQGRNSLWLSDWV [CPXM2], the protein stability index runs as follows: under setting [1], 2.43 ± 0.24; under setting [2], 2.38 ± 0.26.
ARRTTRSEPIRRAGKSGTSTPTTP [MAP2] returned a protein stability index under setting [1] of 4.66 ± 0.12 and a protein stability index under setting [2] of 4.8 ± 0.12.
Consider ASEFLEQSMSQTRELLLDGGYLQR [RSPH3], for which the protein stability index is 3.58 ± 0.43 under setting [1] and 3.55 ± 0.51 under setting [2].
Consider ASLGEKRDHHSTHYRASEEEPEYG [CHGB], for which the protein stability index reads like this: under setting [1], 5.37 ± 0.24; under setting [2], 5.34 ± 0.11.
In the case of ASTTRLYLRKGRGETRICKIYDSP [RAD51], the protein stability index is, setting by setting: under setting [1], 2.94 ± 0.4; under setting [2], 3.19 ± 0.31.
ATAASSSASSPASVGDPCGGAICG [SLC25A25]: the protein stability index runs as follows: under setting [1], 4.9 ± 0.34; under setting [2], 4.85 ± 0.11.
On to ATFNCLNKRLAKYRMRNVHPKPKL [CLCN6], for which the protein stability index by setting is: under setting [1], 2.56 ± 0.15; under setting [2], 2.8 ± 0.27.
As for ATTNACEKPIGSCVTNPCGPRSRC [KRT33B], the protein stability index runs as follows: under setting [1], 3.92 ± 0.17; under setting [2], 4.14 ± 0.23.
For the sequence AVEWARNIPFFPDLQITDQVALLR [NR2F2], the protein stability index by setting is: under setting [1], 2.64 ± 0.2; under setting [2], 2.79 ± 0.22.
In turn, AVGQDCYTRIWSLHDARLLRTIPS [DCAF4] gave a protein stability index under setting [1] of 2.48 ± 0.36 and a protein stability index under setting [2] of 2.39 ± 0.26.
In the case of AVGYSSDSETLDLEEAEGAVGYQP [NFE2L1], the protein stability index under setting [1] was 5.24 ± 0.1 and the protein stability index under setting [2] amounted to 5.33 ± 0.21.
For AVIKSNHSYCRMFLQRGADTNLGR [ASB7], the protein stability index reads like this: under setting [1], 2.26 ± 0.16; under setting [2], 2.41 ± 0.14.
Take AVMFFIVFFAYAQLGYLLFGTQVE [PKD2L1]: the protein stability index is, setting by setting: under setting [1], 2.7 ± 0.48; under setting [2], 2.73 ± 0.44.
The like results for AVPAAATRTTSFKGTSPSSKYVKL [KCTD10] were, in that order, 3.87 ± 0.2 and 3.99 ± 0.28.
The like results for AVQGLNLRSPNNFLSYYRLTRFLS [CCND1] were, in that order, 2.3 ± 0.18 and 2.36 ± 0.27.
With AVTSLSSQIQYMNTVVSTYVTTNV [TMEM106C], the protein stability index reads like this: under setting [1], 2.58 ± 0.67; under setting [2], 2.51 ± 0.39.
AWFLPMPQKSLFFHHIPSTCQRVN [SLC19A2]: the protein stability index is, setting by setting: under setting [1], 2.29 ± 0.48; under setting [2], 2.23 ± 0.075.
Take AWLTEEEPEPAEVTSTSQSPHSPD [DDIT3]: the protein stability index by setting is: under setting [1], 5.59 ± 0.23; under setting [2], 5.63 ± 0.21.
For the sequence AYALPAGLSAPARCLVRCLLRREP [TRIB3], the protein stability index is, setting by setting: under setting [1], 2.23 ± 0.49; under setting [2], 1.87 ± 0.31.
As for AYHVPNRTLASGRLLSYRGERVAA [DNAAF3], the protein stability index by setting is: under setting [1], 3.31 ± 0.23; under setting [2], 3.4 ± 0.14.
For the sequence CASFIRTRLLLQFTQPQQTSFALE [C8orf76], the protein stability index is, setting by setting: under setting [1], 2.46 ± 0.28; under setting [2], 2.7 ± 0.58.
CGDELPWTLQRRLTRLRTASGHEP [PLEKHN1]: the protein stability index reads like this: under setting [1], 2.68 ± 0.12; under setting [2], 2.7 ± 0.34.
The like results for CGSRRERCGYRLVRRQRSADEQLH [ESR2] were, in that order, 2.79 ± 0.36 and 2.93 ± 0.29.
On to CICWSPFLVTMANIGINGNHSLET [PTGFR], for which the protein stability index reads like this: under setting [1], 2.82 ± 0.26; under setting [2], 2.84 ± 0.73.
In the case of CKDFLCQFCAQRFGRKDHLTRHTK [PLAGL1], the protein stability index was 2.63 ± 0.25 under setting [1] and 3.09 ± 0.64 under setting [2].
CLAGCEGAHEQVDFKDFYPAIADL [P3H4]: the protein stability index came out at 3.59 ± 0.48 under setting [1] and 3.68 ± 0.26 under setting [2].
As for CLIRSLLRREPSERLTAPEILLHP [TRIB1], the protein stability index runs as follows: under setting [1], 2.48 ± 0.21; under setting [2], 2.2 ± 0.21.
For CLLICAEMYQVSRLQHICELFIIT [RHOBTB3], in that order: 3.06 ± 0.38 and 3 ± 0.27.
As for CLVKGIFYHCSNDDEGDSYSDNPC [SPRY1], the protein stability index by setting is: under setting [1], 2.61 ± 0.23; under setting [2], 2.89 ± 0.15.
The like results for CNVKYKRWALLSCRGKKPSRIYGQ [KLHDC10] were, in that order, 2.21 ± 0.42 and 2.22 ± 0.37.
Turning to CRFLLNSRVTDAAFNFLLVWYYCT [TMEM120A], the protein stability index came to 2.85 ± 0.74 under setting [1] and 2.38 ± 0.48 under setting [2].
As to CRLKKCFRAGMKKEAVQNERDRIS [HNF4A], the protein stability index was found to be 3.22 ± 0.27 under setting [1] and 3.44 ± 0.25 under setting [2].
Turning to CSIALLRALATSNARAQQRAAAQQ [GNAS], the protein stability index by setting is: under setting [1], 2.23 ± 0.23; under setting [2], 2.27 ± 0.12.
